Source: article PMC11257539 (bioRxiv, 2024)
Non-standard residues stand in square brackets, D forms with d. No end group written: not given here. pS = N[C@@H](COP(=O)(O)O)C(=O)O

What was measured:
[1] = biological target: SNX27 PDZ domain (purified, BLI analyte and ITC cell) (human, UniProt Q96L92 43-136); assay: ITC
[2] = biological target: T1, ESCPE-1 complex (SNX2/SNX6 heterodimer) (human, UniProt O60749;Q9UNH7); assay: co-sedimentation
T1 sequence 1: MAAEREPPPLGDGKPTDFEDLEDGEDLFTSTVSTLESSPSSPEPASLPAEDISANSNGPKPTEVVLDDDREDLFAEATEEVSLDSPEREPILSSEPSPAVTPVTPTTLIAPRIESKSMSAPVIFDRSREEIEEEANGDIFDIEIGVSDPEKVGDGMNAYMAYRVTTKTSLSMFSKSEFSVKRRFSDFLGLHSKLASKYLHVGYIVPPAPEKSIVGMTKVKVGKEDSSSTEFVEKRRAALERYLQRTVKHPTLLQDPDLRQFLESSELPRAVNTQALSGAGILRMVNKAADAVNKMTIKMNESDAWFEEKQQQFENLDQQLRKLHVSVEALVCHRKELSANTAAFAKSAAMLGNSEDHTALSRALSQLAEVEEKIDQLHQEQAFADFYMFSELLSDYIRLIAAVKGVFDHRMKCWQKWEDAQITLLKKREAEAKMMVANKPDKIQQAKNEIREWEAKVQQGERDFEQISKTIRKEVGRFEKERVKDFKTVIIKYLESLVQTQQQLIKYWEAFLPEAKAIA
T1 sequence 2: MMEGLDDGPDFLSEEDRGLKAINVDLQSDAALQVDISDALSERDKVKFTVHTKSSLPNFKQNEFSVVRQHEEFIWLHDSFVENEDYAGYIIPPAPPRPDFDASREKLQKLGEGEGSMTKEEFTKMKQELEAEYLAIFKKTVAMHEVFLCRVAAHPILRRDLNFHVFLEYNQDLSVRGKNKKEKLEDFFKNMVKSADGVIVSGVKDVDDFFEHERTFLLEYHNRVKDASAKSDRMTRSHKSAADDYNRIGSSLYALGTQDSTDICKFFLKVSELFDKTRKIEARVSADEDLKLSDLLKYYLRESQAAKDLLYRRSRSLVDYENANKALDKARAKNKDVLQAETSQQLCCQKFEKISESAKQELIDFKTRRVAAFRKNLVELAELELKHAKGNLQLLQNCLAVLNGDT

[3] = biological target: SNX27 full-length (purified, as analyte in BLI and in liposome pelleting) (human, UniProt Q96L92 1-541); assay: co-sedimentation

B1: PDZbm cargo peptide 5-HT4(a)R-pS-5 (EpSLESCF) (peptide)
peptide: E[pS]LESCF
B1 was tested, and the Kd [1] was 1100 nM, the dH [1] was -15.2 kcal/mol and the “stoichiometry N” value [1] was 1.1.

B2: CI-MPR cargo motif (residues 2347-2375) (peptide)
chain: SNVSYKYSKVNKEEETDENETEWLMEEIQ
B2: binds [2].

B3: His-tagged PDZbm cargo: C-terminal cytosolic tail of 5-HT4(a)R (residues 360-388) (peptide)
chain: YTVLHRGHHQELEKLPIHNDPESLESCF
B3: binds [3].
